Bridge positions count the residues as written; N and C are the ends. Square brackets hold non-standard residues; d marks the D form. Ends that are not written are not given here. S5 = C=CCCC[C@](C)(N)C(=O)O
Experiments:
[1] = biological target: T1, Bfl-1 (Homo sapiens, UniProt Q16548); assay: Bfl-1:NOXA conjugation assay (disulfide bond formation); assay type: binding; details: compared with BCL-XL and MCL-1; non-reducing SDS-PAGE
T1 sequence (Q16548 1-175): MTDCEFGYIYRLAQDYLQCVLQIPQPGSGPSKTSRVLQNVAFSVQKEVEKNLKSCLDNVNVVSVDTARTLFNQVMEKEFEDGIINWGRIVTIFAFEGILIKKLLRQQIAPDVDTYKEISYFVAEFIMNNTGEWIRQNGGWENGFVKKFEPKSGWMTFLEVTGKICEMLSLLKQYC
Experimental: Next, the impact of the C25 in NOXA was investigated. Bfl-1 and NOXA have cysteine residues within 3.5 Å of the Bfl-1 BH3 binding pocket according to modelling. […] To examine the impact of C25 in NOXA on target interaction, we examined the binding of WT NOXA SAHB and NOXA C25S SAHB to Bfl-1 and to a variety of Bfl-1 cysteine mutants. In vitro conjugation assays were performed in order to verify the formation of the disulfide bond. Global reduction of the protein and the NOXA peptides, followed by the introduction of an oxidant such as GSSG led to production of a disulfide bond, shown as a 3 kDa shift on non-reducing SDS-PAGE (FIG. 4A). […] (FIG. 4A).
Bfl-1:NOXA conjugation assay: The conjugation assay was developed to test for disulfide bond formation in a non-reducing environment. 3:1 FITC-stapled peptide:protein molar ratio was combined in the presence of DTT, then diluted and incubated with 1.2 molar excess GSSG. Samples were then run on non-reducing SDS-PAGE, scanned for fluorescence, then stained with Coomassie.

[2] = biological target: T2, GST-MCL-1ΔNΔC (Homo sapiens, UniProt Q07820); assay: Streptavidin pull-down from anti-apoptotic protein mixture; assay type: binding; details: 1:1:1:1 mixture, 1 μM each, biotinylated SAHBs
T2 construct: MCL-1ΔNΔC (aa 170-327) and BCL-XLΔC (aa 1-212) constructs were cloned into pGEX-4T-1; made in house; host or cells: Escherichia coli BL21(DE3)
From the text: We next explored how conversion of NOXA and BIM SAHBs to BFL-1 C55-reactive agents influenced the balance between noncovalent and covalent SAHB interactions in the context of an anti-apoptotic protein mixture. First, we generated recombinant MCL-1ΔNΔC, BCL-XLΔC and BFL-1ΔC proteins with differential N-terminal tags (GST, tagless, and His, respectively) so that each could be readily identified upon gel electrophoresis and silver stain (FIG. 13A-B).
Streptavidin Pull-down: Recombinant His-BFL-1ΔC, BCL-XLΔC (tagless) and GST-MCL-1ΔNΔC (1 μM each) were combined and reduced with 3 mM DTT in PBS for 30 min at RT, and then incubated with 1 μM biotinylated SAHBA, SAHBA-3 or vehicle for 4 h at RT. The mixtures were then combined with PBS-washed high-capacity SA agarose (Thermo Fisher Pierce) and incubated with rotation for 2 h at RT. The beads were centrifuged at 3000 rpm, washed twice with NP-40 lysis buffer (1% NP40, 50 mM Tris pH 8.0, 100 mM NaCl, 2.5 mM MgCl2), once with PBS, and then bound protein eluted by boiling in 10% SDS containing 10 mg/mL biotin. Inputs (10%) and eluates were electrophoresed on a 12% Bis-Tris gel and then subjected to silver stain and imaging.

T2 sequence (Q07820 170-327, stated change not applied): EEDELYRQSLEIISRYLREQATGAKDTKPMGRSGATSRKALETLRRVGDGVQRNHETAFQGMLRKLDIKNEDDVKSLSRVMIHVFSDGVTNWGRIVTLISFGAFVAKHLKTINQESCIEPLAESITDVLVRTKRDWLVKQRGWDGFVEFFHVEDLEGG

NOXA SAHBA: stapled NOXA BH3 (aa 19-43) peptide, i, i+4 all-hydrocarbon staple substituting R31 and K35; SEQ ID NO:124 (AELEVECATQLR[S5]FGD[S5]LNFRQKLL; staple 13-17; not fully specified)
covalent (disulfide) bond formation [1]: only Bfl-1 forms a covalent bond | MCL-1ΔNΔC capture in SA pull-down [2]: prominent non-covalent capture of MCL-1ΔNΔC

From patent publication US12570698B2, “Stabilized peptides for covalent binding to target protein” (Dana-Farber Cancer Institute, Inc., priority 2015, dated 2026)
